Measurements published in PMC3733929, “Analysis of Mutations in Neurospora crassa ERMES Components Reveals Specific Functions Related to β-Barrel Protein Assembly and Maintenance of Mitochondrial Morphology” (PLoS ONE, 2013).

Biological target: the molecule itself
Experiment: non-reducing SDS-PAGE and Western blot; isolated mitochondria dissolved in cracking buffer (0.06 M Tris-HCl pH 6.8, 2.5% SDS, 5% sucrose) without β-mercaptoethanol; anti-HA blot; disulphide-bonded form at about 100 kDa

B1: Mmm1-HA (N. crassa Mmm1 with a C-terminal triple hemaglutinin epitope tag) (natural protein, Neurospora crassa, UniProt Q9P353 1-415, looked up)
chain: MADICPSRSEPTLSFTQGLILGQLSVVLLLAAFIKFFIFGDPPSPEVVASIRATDRRSRTLAHKKSILSLRETNALQLVQNPALNKKHVLRPGPPILTIGSILSKTYYKVDSHQPESLDWFNVLIAQTIAQFRSDAQHDDAILSSLSKALNGTARPDFLDEIKVTELSLGEDFPIFSNCRIIPVDEDGLSFGTGKAFDANMATREGARLQARMDVDLSDMITLAVETKLLLNYPKRLSAVLPVALAVSVVRFSGTLSISFIPSNPSNNEPAKMIFTFLDDYRLDFSIRSLLGSRSRLQDVPKIAQLVESRLHRWFDERCVEPRFQEIALPNMWPRKKNTRGGDETISDVERSMSKAKGVDIAKDVREEARKEIEAEAHGGADRVPDSLRYRHRPRADEEFPGAGSMPGSMPGSMP
notes: Mmm1, Neurospora crassa; also called HA-tagged Mmm1; Mmm1-HA3; source: N. crassa Δmmm1 transformed with pMmm1-HA (endogenous mmm1 promoter; strains Mmm1-HA3, Mmm1-HA5, Mmm1-HA8), in isolated mitochondria or post mitochondrial pellet; not shown: 3xHA, C-terminal, kept
With B1 as the protein, how does the “stoichiometry N” value read?
Its value is 2.
